# Measured values: patent US20150231240A1, “ANTI-C16ORF54 ANTIBODIES AND METHODS OF USE THEREOF” (priority 2012, published 2015)
# Where a chain is given by its changes, count along the chain named.
# T1: N-terminal 32 amino acids of huC16orf54 (Homo sapiens, UniProt Q6UWD8)
# T1 sequence (Q6UWD8 1-32 limits assumed): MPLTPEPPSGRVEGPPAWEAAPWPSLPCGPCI
# T2: C16orf54 in cells and human tissues (Homo sapiens, UniProt Q6UWD8)
# T2 construct: from tissue; host or cells: isolated hematological tumour cells (lymphoma, AML, CLL) and human tissues, OCT-embedded frozen sections
# T2 sequence (Q6UWD8 1-224): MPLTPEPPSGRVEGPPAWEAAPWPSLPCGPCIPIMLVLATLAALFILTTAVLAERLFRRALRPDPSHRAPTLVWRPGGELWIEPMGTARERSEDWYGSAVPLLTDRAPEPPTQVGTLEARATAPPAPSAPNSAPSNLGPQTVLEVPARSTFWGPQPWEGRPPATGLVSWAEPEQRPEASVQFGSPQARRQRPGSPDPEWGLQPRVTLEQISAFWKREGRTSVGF
# T3: human C16orf54 (human, UniProt Q6UWD8 1-224)
# T3 construct: also called huC16orf54; hC16orf54
# T3 sequence: T2 sequence (Q6UWD8 1-224)
# B1: R29-7-1C: murine anti-C16orf54 monoclonal antibody, IgG2a; VH SEQ ID NO: 8, VL SEQ ID NO: 10 (antibody, V domains shown)
# VH: MRVLILLWLFTAFPGILSDVQLQESGPGLVKPSQSLSLTCTVTGYSITSDYAWNWIRQFPGNKLEWMGYISYSGSIRYNPSLKSRISITRDTSKNQFFLQLNSVTTEDTATYYCAREKYDNYYYAMDYWGQGTSVTVSS
# VL: MDSQAQVLMLLLLWVSGTCGDIVMSQSPSSLAVSVGEKVTLSCKSSQNLLYSTNQKNYLAWYQQKPGQSPKLLIYWASTRESGVPDRFTGSGSGTDFTLTISSVKAEDLAVYYCQQYYSYRTFGGGTKLEIK
# modifications: R29-7-1C heavy chain variable region; R29-7-1C light chain variable region
# B2: R29-67-7A: murine anti-C16orf54 monoclonal antibody, IgG2a; VH SEQ ID NO: 12, VL SEQ ID NO: 14 (antibody, V domains shown)
# VH: B1 VH with S71N, S75R, I76T, K83N, I88L, K94T, K118N, N121Y, Y122E, Y123F
# VL: B1 VL with D2E, L41M, T53S, S119I
# modifications: R29-67-7A heavy chain variable region; R29-67-7A light chain variable region
# B3: R29-7-1C (antibody, V domains shown)
# VH: DVQLQESGPGLVKPSQSLSLTCTVTGYSITSDYAWNWIRQFPGNKLEWMGYISYSGSIRYNPSLKSRISITRDTSKNQFFLQLNSVTTEDTATYYCAREKYDNYYYAMDYWGQGTSVTVSS
# VL: DIVMSQSPSSLAVSVGEKVTLSCKSSQNLLYSTNQKNYLAWYQQKPGQSPKLLIYWASTRESGVPDRFTGSGSGTDFTLTISSVKAEDLAVYYCQQYYSYRTFGGGTKLEIK
# notes: Murine monoclonal IgG2a from a hybridoma
# What was measured:
# [1] = target: T1, N-terminal 32 amino acids of huC16orf54; assay: Affinity measurements of purified antibodies on OctetQK384; assay type: binding; details: purified antibody, streptavidin sensors coated with N-terminal 32 amino acids of huC16orf54 coupled to biotin
# Description: Affinity measurements of purified anti-huC16orf54 antibodies were carried out on the OctetQK384® sytem (ForteBio). After coating streptavidin sensors with the N-terminal 32 amino acids of huC16orf54 coupled to biotin at the C-terminus, association and dissociation of purified anti-huC16orf54 antibodies was monitored. KD values were derived using ForteBio's software.
# [2] = target: T2, C16orf54 in cells and human tissues; assay: Human C16orf54 immunohistochemistry (IHC); assay type: binding
# Description: Anti-C16orf54 antibodies were used to detect C16orf54 expression as analyzed by immunohistochemistry (IHC). The transfected cell lines (5×10^7) and isolated hematological diseased cells were washed in PBS, centrifuged at 300 g for 10 minutes and the resultant cell pellets embedded and frozen in Tissue-Tek OCT compound (commercially available, e.g., Sakura Finetek USA, Inc., Torrence, Calif.; Fisher Scientific USA). 8 μm cryostat sections of the OCT embedded cells and human tissues were post-fixed in a 75% ethanol, 25% acetone mixture for 5 minutes followed by washing in PBS. The slides were then stained with exemplary primary anti-C16orf54 antibodies on a Dako Autostainer using standard avidin-biotin complex (ABC) IHC procedures. In some experiments, the endogenous peroxidase activity was blocked using Bloxall reagent (Vector SP-6000) for 5 minutes followed by avidin/biotin blocking reagents (Vector SP-2001) to block endogenous biotin within tissues. A pre-incubation with a protein blocker (Dako X0909) was performed followed by the primary antibodies incubation for 1 hour at room temperature. In some experiments, primary antibody 7-1C was diluted to a final concentration of 5 μg/ml and primary antibody 67-7A was diluted to a final concentration of 10 μg/ml using antibody diluent (Dako S3022). The control antibody used was a pan-mouse IgG antibody (Life Technologies 08-6599). In some experiments, after washing in PBS, the slides were incubated with a biotinylated horse anti-mouse antibody 1:200 (Vector BA-2001) for 30 minutes followed by a universal streptavidin-peroxidase conjugate (ABC-HRP Vector PK-6100) for 30 minutes. Diaminobenzedine was used as the chromagen (Sigma D5909) and the slides were counterstained with Mayers hematoxylin for 5 minutes, followed by dehydration and coverslipping.
# [3] = target: T3, human C16orf54; assay: flow cytometry, SW1990 pancreatic cancer cells (endogenous C16orf54), 3 repeats
# [4] = target: T3, human C16orf54; assay: cell ELISA on huC16orf54-expressing sarcoma cells, purified antibody in 1:4 eight-point dilution from 200 nM, 2 h at 4 C, anti-mouse IgG Fc HRP luminescence
# Description: Purified anti-huC16orf54 monoclonal antibodies were also tested for binding by ELISA. huC16orf54-expressing sarcoma cells were incubated with an 1:4 eight-point dilution series starting with 200 nM of anti-huC16orf54 antibody for 2 hours at 4° C. After washing, the cells were incubated with a secondary antibody (Jackson Immunologicals Goat×IgG, Fc specific HRP—Product#115-035-071) and detected with SuperSignal® ELISA Pico Chemiluminescent substrate (Thermo Scientific—Product#37069). EC50 values were determined using Graphpad Prism® software. An isotype control, R22-4-26A, is also shown.
molecule,measurement,setting,value
B1,kdis,[1],7.95e-05 ± 8.9e-06 s⁻¹
same,kon,[1],68100 ± 6200 M⁻¹ s⁻¹
B2,C16orf54 (67-7A) IHC,[2]; AML sample AML-183L,Positive
same,C16orf54 (67-7A) IHC,[2]; AML sample AML-205L,Positive
same,C16orf54 (67-7A) IHC,[2]; AML sample AML-211L,Positive
same,C16orf54 (67-7A) IHC,[2]; AML sample AML-213L,Positive
same,C16orf54 (67-7A) IHC,[2]; CLL sample CLL-408L,Positive
same,C16orf54 (67-7A) IHC,[2]; CLL sample CLL-BC042,Positive
same,C16orf54 (67-7A) IHC,[2]; CLL sample CLL-BC043,Positive
same,C16orf54 (67-7A) IHC,[2]; CLL sample CLL-UF048,Positive
same,C16orf54 (67-7A) IHC,[2]; Lymphoma sample MD00402,Positive
same,C16orf54 (67-7A) IHC,[2]; Lymphoma sample OD39986,Positive
same,C16orf54 (67-7A) IHC,[2]; Lymphoma sample OD41079,Positive
same,C16orf54 (67-7A) IHC,[2]; Lymphoma sample OD41411,Positive
same,C16orf54 (67-7A) IHC,[2]; Lymphoma sample WD3517,Positive
same,IHC staining of hematological tumors,"[2]; frozen sections, 10 μg/ml primary antibody",confirm the C16orf54 IHC expression in hematological tumors
B3,Average MFI fold change relative to isotype control,[3],1.9 fold
same,EC50 (read off the curve),[4],~0.07 nM
